Assay results reported in PMC12923268, “JAZ2/JAZ4-MYC2.1 module mediates MeJA-induced alleviation of chilling injury in peach fruit (Prunus persica)”.

B1: PpPAL1 probe (dsDNA)
DNA 1: GGCAACCACATGGATGAATTGTTAT
DNA 2: ATAACAATTCATCCATGTGGTTGCC
B2: Pp4CL probe (dsDNA)
DNA 1: GCATGGGACACACGTGTTCAAATACTTGTATGA
DNA 2: TCATACAAGTATTTGAACACGTGTGTCCCATGC
B3: PpCHI3 probe (PpCHI) (dsDNA)
DNA 1: CATCTACCCACGTGTTCAACAATTCAA
DNA 2: TTGAATTGTTGAACACGTGGGTAGATG
B4: PpHB.G7 mut (dsDNA)
DNA 1: GTGGCGTGAGAAAAAAAATGGCCGTTACGC
DNA 2: GCGTAACGGCCATTTTTTTTCTCACGCCAC
B5: PpCHS probe (dsDNA)
DNA 1: AGAAAACCACGTGGGACAAAACCCTAGA
DNA 2: TCTAGGGTTTTGTCCCACGTGGTTTTCT
B6: PpPG2 probe (dsDNA)
DNA 1: GACAACAATTCCACATGTCCTATGTTTATTG
DNA 2: CAATAAACATAGGACATGTGGAATTGTTGTC
B7: PpPL1 probe (dsDNA)
DNA 1: CACACACTCACATGTTGCTAAATT
DNA 2: AATTTAGCAACATGTGAGTGTGTG
B8: PpIAA1 probe (dsDNA)
DNA 1: AGTAGTTGGCACGTGTTATAAATAATA
DNA 2: TATTATTTATAACACGTGCCAACTACT
B9: PpXTH2 probe (dsDNA)
DNA 1: TGAGGCGCACATGGAACAAAATTAG
DNA 2: CTAATTTTGTTCCATGTGCGCCTCA
B10: PpERF61 mut (dsDNA)
DNA 1: ACAAGTTGAGAAAAAATACCCAATTGCT
DNA 2: AGCAATTGGGTATTTTTTCTCAACTTGT
B11: PpERF61 probe (dsDNA)
DNA 1: ACAAGTTGAGCATGTGTACCCAATTGCT
DNA 2: AGCAATTGGGTACACATGCTCAACTTGT
B12: PpIAA1 mut (dsDNA)
DNA 1: AGTAGTTGGAAAAAATTATAAATAATA
DNA 2: TATTATTTATAATTTTTTCCAACTACT
B13: PpHB.G7 probe (dsDNA)
DNA 1: GTGGCGTGAGAACACGTGTGGCCGTTACGC
DNA 2: GCGTAACGGCCACACGTGTTCTCACGCCAC

Experiments:
[1] = target: T1, PpMYC2.1 (Prunus persica, UniProt A0A251P353 1-687); experiment: EMSA; Chemiluminescent EMSA Kit (Beyotime); buffer, salt, pH and temperature not stated; conditions: protein: recombinant; tags: His, SUMO (pET-SUMO); chain copies: 2; label: 3' biotin; blunt
[2] = target: T1, PpMYC2.1; experiment: competition; mutant competitor vs N3; failed to compete effectively; Chemiluminescent EMSA Kit (Beyotime); buffer, salt, pH and temperature not stated; conditions: protein: recombinant; tags: His, SUMO (pET-SUMO); chain copies: 2; blunt
[3] = target: T1, PpMYC2.1; experiment: competition; mutant competitor vs N1; failed to compete effectively; Chemiluminescent EMSA Kit (Beyotime); buffer, salt, pH and temperature not stated; conditions: protein: recombinant; tags: His, SUMO (pET-SUMO); chain copies: 2; blunt
[4] = target: T1, PpMYC2.1; experiment: competition; mutant competitor vs N5; failed to compete effectively; Chemiluminescent EMSA Kit (Beyotime); buffer, salt, pH and temperature not stated; conditions: protein: recombinant; tags: His, SUMO (pET-SUMO); chain copies: 2; blunt

T1 sequence (A0A251P353 entry or part of it): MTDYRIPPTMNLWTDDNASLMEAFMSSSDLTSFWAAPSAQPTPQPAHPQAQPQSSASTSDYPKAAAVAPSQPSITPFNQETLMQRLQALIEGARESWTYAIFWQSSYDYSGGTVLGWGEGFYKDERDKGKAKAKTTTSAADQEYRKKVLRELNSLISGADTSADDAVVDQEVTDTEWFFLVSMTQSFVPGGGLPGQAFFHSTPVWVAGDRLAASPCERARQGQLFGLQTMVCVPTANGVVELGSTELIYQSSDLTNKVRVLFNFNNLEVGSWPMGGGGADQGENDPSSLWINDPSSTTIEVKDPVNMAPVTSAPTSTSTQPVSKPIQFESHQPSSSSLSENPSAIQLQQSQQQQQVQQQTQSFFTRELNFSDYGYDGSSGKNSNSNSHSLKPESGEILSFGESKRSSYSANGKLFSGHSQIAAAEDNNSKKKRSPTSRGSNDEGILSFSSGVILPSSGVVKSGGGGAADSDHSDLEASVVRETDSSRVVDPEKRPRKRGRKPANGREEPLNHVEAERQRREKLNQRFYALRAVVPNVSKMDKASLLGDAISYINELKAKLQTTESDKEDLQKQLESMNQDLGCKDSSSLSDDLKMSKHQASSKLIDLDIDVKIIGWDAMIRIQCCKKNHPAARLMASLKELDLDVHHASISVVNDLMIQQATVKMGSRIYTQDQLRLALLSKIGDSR

Binder	binding result [1]	other results
B1	binds	
B2	binds	
B3	binds	
B4		binding result [2]: no binding
B5	binds	
B6	binds	
B7	binds	
B8	binds	
B9	binds	
B10		binding result [3]: no binding
B11	binds	
B12		binding result [4]: no binding
B13	binds	
